{"source": "patent US20220089743A1", "binders": {"B1": {"name": "DQN034425 (antibody, V domains shown)", "VH": "QVQLVESGGGVVQPGRSLRLSCAASGFTFSSSYWMCWVRQAPGQGLEWMGCVYGGSDTTYYASWTKGRFTISRDNSKNTLYLQMNSLRAEDTAVYYCARDPLNYYYYGELNLWGQGTLVTVSS", "VL": "DIQMTQSPSSLSASVGDRVTITCQATENIYSGLAWYQQKPGKAPKLLIYYVSTLASGIPARFSGSGSGTDFTLTISSLEPEDFAVYYCQTYHDISNVTFGQGTKVEIK"}}, "assay_in_all_cases": "cell-based or functional assay", "key": {"[1]": {"biological_target": "HLA-DQ2.5 on IHW09023 cells loaded with 33 mer gliadin peptide (human; wheat)"}, "[2]": {"biological_target": "HLA-DQ2.5 on IHW09023 cells loaded with BC hordein peptide (human; barley)"}, "[3]": {"biological_target": "HLA-DQ2.5 on IHW09023 cells loaded with gamma 1 gliadin peptide (human; wheat)"}, "[4]": {"biological_target": "HLA-DQ2.5 on IHW09023 cells loaded with gamma 2 gliadin peptide (human; wheat)"}, "[5]": {"biological_target": "HLA-DQ2.5 on IHW09023 cells loaded with gamma 3 gliadin peptide (human; wheat)"}, "[6]": {"biological_target": "HLA-DQ2.5 on IHW09023 cells loaded with gamma 4a gliadin peptide (human; wheat)"}, "[7]": {"biological_target": "HLA-DQ2.5 on IHW09023 cells loaded with gamma 4d gliadin peptide (human; wheat)"}, "[8]": {"biological_target": "HLA-DQ2.5 on IHW09023 cells loaded with omega1/2 gliadin peptide (human; wheat)"}}, "data": [{"binder": "B1", "values": [{"measurement": "IC50, α1a gliadin TCR, 250 nM 33mer gliadin", "setting": "[1]", "result": 0.0106, "unit": "µg/mL"}, {"measurement": "IC50, α1b gliadin TCR, 250 nM 33mer gliadin", "setting": "[1]", "result": 0.0464, "unit": "µg/mL"}, {"measurement": "IC50, α2 gliadin TCR, 250 nM 33mer gliadin", "setting": "[1]", "result": 0.00175, "unit": "µg/mL"}, {"measurement": "IC50, BC hordein TCR, 250 nM BC hordein", "setting": "[2]", "result": "> 20", "unit": "µg/mL"}, {"measurement": "IC50, γ1 gliadin TCR, 250 nM γ1 gliadin", "setting": "[3]", "result": "> 20", "unit": "µg/mL"}, {"measurement": "IC50, γ2 gliadin TCR, 250 nM γ2 gliadin", "setting": "[4]", "result": "> 20", "unit": "µg/mL"}, {"measurement": "IC50, γ3 gliadin TCR, 100 µM γ3 gliadin", "setting": "[5]", "result": 3.1, "unit": "µg/mL"}, {"measurement": "IC50, γ4a gliadin TCR, 25 µM γ4a gliadin", "setting": "[6]", "result": "> 20", "unit": "µg/mL"}, {"measurement": "IC50, γ4d gliadin TCR, 100 µM γ4d gliadin", "setting": "[7]", "result": "> 20", "unit": "µg/mL"}, {"measurement": "IC50, ω1 gliadin TCR, 25 µM ω1/2 gliadin", "setting": "[8]", "result": 0.00312, "unit": "µg/mL"}, {"measurement": "IC50, ω2 gliadin TCR, 250 nM ω1/2 gliadin", "setting": "[8]", "result": "> 0.5", "unit": "µg/mL"}]}]}
